Results published in the DeepSol protein solubility set.

Test: soluble on expression in E. coli; label from the status in PepcDB or PDB records

Row | Sequence | soluble on expression in E. coli
1 | MERVRRASHAGSWYTNNARKLDEELDGWLRAAGLTKSPDVRAVIAPHAGYSYSGRCAAYAFGNIDPTNISRVFLLGPSHHYYTPKCALTRATIYSTPIGDLPVDHEVIEELNATGKFDFMDLSVDEAEHSMEMHLPYLSKVFQGHNVKVVPILVGALNSQNEAMYGQLLSKYLDDPKNFFSISSDFCHWGTRFSYTYYDKSHGAIHKSIEALDRMGMEIIETGNPDAFKQYLQEYENTICGRHPISVFLSMLKHCLTKIKIGFVRYEQSSQCKSMRDSSVSYASAAAKVDTPAEEEKD | soluble
2 | MESCITVIGERDVVLGFRLLGIQHTIIAEGKDLLKKFLEVFQNPQCNIIIVSENVKNMMDKRTLRSVEISSKPLVVFIPLPGVREEETIEEMAKRILGIDIGNVLEHHHHHH | not soluble
3 | MESEQCPVGKIPHIRMDDGAGIEEFYTFGRILGQGSFGMVFEAIDKETGAKWAIKKVNKEKAGSSAMKLLEREVSILKTVNHQHIIHLEQVFESPQKMYLVMELCEDGELKAVMDQRGHFSENETRLIIQSLASAIAYLHNKDIVHRDLKLENIMVKSSFIDDNNEMNLNIKVTDFGLSVQKHGSRSEGMMQTTCGTPIYMAPEVINAHDYSQQCDIWSIGVIMFILLCGEPPFLANSEEKLYELIKKGELRFENPVWESVSDSAKNTLKQLMKVDPAHRITAKELLDNQWLTGNTLSSARPTNVLEMMKEWKNNPESDEETNTDEETEQSAVYSPSANTAKQPTNAAKKPAAESVGMTSSNSSSSKLLSAESKAEPEKSSETVGHASVAKTTLKSTTLFRGKKRL | soluble
4 | MESHENPGMFSRLLRLFHRENGDQGETRPRQKEFGILSYEKGRMKSFWGRHVSAGKTSSQSCNITNHMKNMNKLEDMKFYIRKINAEREELFRILDIDMNTDLNYSIRHTHLLKKCNQLKKKVRMLLNENRKLLVEQADQEASFGEEKSSVMRPARTYIPSAKQQQV | not soluble
5 | MESKVERYVENYVVTKNTMALLPVILSEKKIVTRVVEMNDSFFVFQKPLDIIERSCRKHGSSFLGRKEGTKELTHITHKAPIAISPADQLYFFPTYSYSRKECAWLSHFYIESNKELKDGNLIIRFINGFAVKLEISKTSFENQQNRTAKLRTEYEDRRKKQGNPCFKEVDKKEESTLRPAYESVYFVKEGEV | not soluble
6 | MESLTLQPIARVDGTINLPGSKSVSNRALLLAALAHGKTVLTNLLDSDDVRHMLNALTALGVSYTLSADRTRCEIIGNGGPLHAEGALELFLGNAGIAMRSLAAALCLGSNDIVLTGEPRMKERPIGHLVDALRLGGAKITYLEQENYPPLRLQGGFTGGNVDVDGSVSSQFLTALLMTAPLAPEDTVIRIKGDLVSKPYIDITLNLMKTFGVEIENQHYQQFVVKGGQSYQSPGTYLVEGDASSASYFLAAAAIKGGTVKVTGIGRNSMQGDIRFADVLEKMGATICWGDDYISCTRGELNAIDMDMNHIPDAAMTIATAALFAKGTTTLRNIYNWRVKETDRLFAMATELRKVGAEVEEGHDYIRITPPEKLNFAEIATYNDHRMAMCFSLVALSDTPVTILDPKCTAKTFPDYFEQLARISQAA | soluble
7 | MESLYTSTLSEISEEEIVKGRIVSISNKDVTIDVGFKSEGIVSLLEFRDDDEIKVGDDVEVYLENIEDKMGQLILSKRKADVLRIWDKIYDSIENDTIINGKIINRVKGGMTVSLSGVEAFLPGSQIDVKPVRDFDALVGKTMDFRVVKINPVTQNIVVSHKVILEEEYAAKREEMLANIKVGMVLEGTVKNITDFGIFVDLGGLDGLVHITDITWGRINHPSEVVELDQPIKVVVVGFDENTKRVSLGMKQLEAHPWENIEIKYPVGIKATGRVVSITDYGAFVEIEKGIEGLVHISEMSWTQHIKHPSQFVSLNQEVEVVILNIDKEHTKLSLSMKRVSEDPWIALSEKYVEGSLHKGTVSNITDFGVFVELEPGVDGLVHISDLSWTKKIRHPSELVKKGQELEVKVLKFDVNARRIALGHKQINNDPWGEFEQKYAVGAECTGAISQIIEKGVIVILPGEVDGFVPVSHLLQGGVKDIHSSFKIGDELPLRVIEFDKENKRIILSALEYFKDKSKEEIEAYLQAHPNEKKEIEAASAELEPQPKGR | not soluble
8 | MESVESAARDYRETLAELRNNNKTQINLLTILADDFKKAAPQIVEVIERHLTTCSPSQKLLVMYVCDSILKNVKKPNDYDALFARKIVSMFEHAFRQGDERIRTSLYRIRVTWASTTLFMPSKLYELDMKINKLDPNWPISNPQTGRALRDDPQVMAPSQSRPAGNATSPAASTSTNRVFVNPKFIGSSTPGAASASKTVVEKTKSPGTVNKEKQVKKEPKQDPLDKLLPSSSASKTSSSPAGLKRKSAPSEHPNAPIRKKPQQPPKPQTAIDEDLRSISLTKKPPVPSAQDQDFRPKTLKPTSVIGSHAFAPVAAPIRPMIPVPPPVSVAPFVPAPPLSSAPPFQHPQQHHPQLPPPPVHQGMGRGYHHNSPPQDPAPIVPVQAPPPQQHLPAPENVYSSEQPKLDVPANNRIFVDGKAYEVMFVDDTAVIERGGAPHRIYFAGPPRNLVIDGIPHLLQFDTPTQIDILGSKHMVKFGAPSRELYIGGHPFKGQFGGPPIIATINGRRHEIRLTGSAPEVRIEPEPAYHLTHFLHKMREEKKIEIASEKPEKKEDWLSYLKNLRTRNILPAPARSPSSPRNQTPPPANLPIPGMNNAGQRGGYHNRHQPQQNARWGGANKQQNIPPPPSDPSPIGSGVEKRSAPPAAITDFNIRLLQIRYDSVVDALITKRADACKFCGMRLDDSQGKSKEWQDHMDWHVKQNLARHGSNNSAAVPYRQWYPSTSTWLTPRASDETNEQEADKPEEPLPGVASSGVKTKECSVCGEKFDEYYDDDEETWRLRDTVNVHGKIVHSACASDAARSLDNSSFFNDSDIKKEEPFD | not soluble
9 | METETYTNSSHLGRKIERIRRLRGMTQTDLGELLGVTKQAISKMEQAEKIDDEKLKQVATALGVTEEGLKKFTEETVLYYTSNFYENCHVSASNIGPITHVENLNHFSMDQAVKLFEELLKIERDKYDKGKEESAK | not soluble
10 | METFILSSDSDDDSGPPPSKRRTIEGIPRSFSGDKKIRFSFGASNMSQDTTQEIIPEDTDTVPLTIPSTPALSGKFDSKTPKSVRRRSVSMSCFTPIVETINQPPTNQACSSFLQKEYNFHDLSSDEEGGDGGAGCSKDEDKIIEDNLNLRALLSPEKKKRKEKIEEVQNEFYGVYCLISRSDRPCYKNRCYIGYTVDPNRRIMQHNGGRDKGGAKKTDSRGPWDMVCVVHGFPNHVAALHFEWAWQNPLVSKSLKEKQLRKERKETPFAFQLRIACELMNSSAFCRFALTFRWLITTEELPFPTSCVPPDHTKLRFGKVKKEMSLVPSKREDYLEMGECRICGKDIEKLWSLVRCISATCPSHFHSKCLSENGLKLKNEHVDHVYPLKANCPTCGQFYLWGDIIREQRRIIKISTKCAEEFQNMVVRKELPHREISPISSKK | not soluble
11 | METFTVKMGADSGLLQFEPANVTVHPGDTVKWVNNKLPPHNILFDDKQVPGASKELADKLSHSQLMFSPGESYEITFSSDFPAGTYTYYCAPHRGAGMVGKITVEG | soluble
12 | METIFEDEETMMAAEQSSSGISANSNSNCSASKTEKASKKPKNAIPKVKNSGIHKKPAKSDFDEFLSSMKSRLSQATSMKSNKEQLKMLEETQKLIFDRITKSADARDMEHLEKQMNKL | soluble
13 | METKKQSESETYVERMVLPEDMDIYEYLYGGRLMEWIDNCASIVATKHCRKRTVTGSIDSLFFLLPIHLGDMVILHGYINYTTKSTMEIEIDVIKEEGLTGIRRYATKAYLTYVAIDSDGRPTEIPQIVPETDEEKRRYQDAEKRAEERRKRLESIKQQLASMVP | not soluble
14 | METKTVAITMGDPAGIGPEIIVKALSEDGLNGAPLVVIGCLATLKRLQAKGITPNVELRAIERVAEARFAPGIIHVIDEPLAQPEALEAGKVQAQAGDLAYRCVKRATELALRGDVQAIATAPLNKEALHLAGHNYPGHTELLATLTHSRDYAMVLYTDKLKVIHVSTHIALRKFLDTLSTARVETVIGIADTFLKRVGYVKPRIAVAGVNPHAGENGLFGDEETRILTPAITDARAKGMDVYGPCPPDTVFLQAYEGQYDMVVAMYHDQGHIPLKLLGFYDGVNITAGLPFIRTSADHGTAFDIAWTGKAKSESMAVSIKLAMQLA | soluble
15 | METPYHQRWLAFPDAVSSYRPLESRLAGTSRATADNRTPCTGRLGTPRVFLMATDDVSKAYSSPTFDAEALLGTVISAEDPDRVLIEPWATGVDGVILDVGSGTGRWTGHLASLGHQIEGLEPATRLVELARQTHPSVTFHHGTITDLSDSPKRWAGLLAWYSLIHMGPGELPDALVALRMAVEDGGGLLMSFFSGPSLEPMYHPVATAYRWPLPELAQALETAGFQVTSSHWDPRFPHAYLTAEASLEHHHHHH | soluble
16 | METSPVFIDYVTIRQEYFGGGLPVLNDGKVLKVDADGEIEYSTDVRCIIEGSYDSRVQVRCDGNTVEFTGNISRYGRRDNLFGYDWPTTIARINDLLSLLGLPPFTSGKLYKFADTGWSWSGARVSRIDLTCNYSTGSKESMHAVLCHMAGQHVGRQKGSLSPDSGTVEYGRGSKYVYGKLYAKYQELEKHRSKKSGSHVSDDVIDYCKTEGILREEFTLKSRFLLQNNLAYLGAITQDNLNQILEHHHHHH | not soluble
17 | MEVEIEDIDEVATLTETDIVEIQTKLIEDLQEMVVKDKEKHEKLLKLGEHVLDEQTRLRTRLSEEFGDFLNRSKRSLTRNFETADGNVYSFEKNLRELLHLYITVHNRVKQDEKEVAKQDEFLNQIDRNEMELKDLRDNIRSLRSELTVDVGPVSSVTSKTSGIEANFIVKPYKPLETELATQIVRVNRELEILKMQLPNCDHFPNLMNPVQKLGEKVTGMVMKDLPAKKLQDFLDTLPPMKRD | not soluble
18 | MEVKEVELELSSEATFLSKTSIGEITAGEKGLNPMELLLVSIGSCSGVDVYHILKKKRQEVKDIKIFLKGKRREKHPKIYEEIEIKYVAVGKVEEKALEQAVKLSTEKYCSVLAMVKPSTNLKISWEVKWEE | soluble
19 | MEYIPDNSDEGRIVAMTLAVALRRALASVLGVSATELGYAVRPVRLDNEQSVLAVQLYDIISGGAGFASSAPLHIEAVLKGMVKQLGCRHCDTACSECLLDSQTRHDHDQLDRKAAQAWLGEDFSHYIGLPEAEKLEHHHHHH | not soluble
20 | MFALEVLALERRTALLLGASGLVGGELLKLLLQSDLYRCVTIFVRTPLPVEHEKLQQVVVDFARLESYERYFYVDDVFCCLGTTRKKAKTKQQFIQVDYEYTLRAAALAEKCRAKSFLTVSSVGANPCSPFFYQRVKGETEEALQRLSIPSLHIFRPSLLVGKRREFRLGEALGGWLLCRLPFLFVGKWKKYKPVDAHQLALAMFYRAASATSGVHIYECDELARIS | not soluble
21 | MFALIQRGQIYTDRAGYPVEITRSTEHSVFFRRMDGRTGRVRIGEFSSLFEHIDHLEYHKILAETEQEKHLKKLRAMQRK | not soluble
22 | MFCRDTLCDTTPAVTDFLNGLSAVASKSPCSGDGALSDGHNAQSRMPVMGHVFLTGLLCVSRLARKRQLLLKRLKQSALPPRASATPSMEDVAVQSPSAAADAGDTVFVRLVLSLLGHTLMKQATTAPCAASPGDNASPQAAPLPWWPATSAPSENAEDVVYDVQCVGNEDDHAGDNVGFSEEHAPGVGHMLFTASTSVHCRIVLRSHPVAIFSPAMMSELALDAEQRASVASRTWCHGGAPGTDSSEAVDAEADAGSCVARALEVFDACVRDHEEACLRQIAEIVGSLQRLLEKPATEVQSPGGLASTGSPSDSANASASRLGGCASPLHEWTIDVPIYGVVLYIEDTHATRLERVRRLTTPLLQAATGCGNAAGGPLGPVTQVLSKLHTWCAAWTAASSTSSTSPGASSCTPGIRTITLMHVTELRQLVDSHLKNSQTAAARLPGPANPATVGYDVSQALAAPACVVHCQLGVSRSPSVVMLFYMDVLAPQLRAAASAAEAPLNIFHGLLNALVQARHRVRPNVCFSAQLLSLWRRLMQLDTPASPTRVV | not soluble
